From US20250320302A1 (EVOTEC INTERNATIONAL, published 2025)
Where a chain is given by its changes, count along the chain named.

T1: human type I IFN receptor on HEK-Blue IFN-α/β cells (human, UniProt P17181 28-557; P48551 27-515)
T1 sequence (looked up) 1: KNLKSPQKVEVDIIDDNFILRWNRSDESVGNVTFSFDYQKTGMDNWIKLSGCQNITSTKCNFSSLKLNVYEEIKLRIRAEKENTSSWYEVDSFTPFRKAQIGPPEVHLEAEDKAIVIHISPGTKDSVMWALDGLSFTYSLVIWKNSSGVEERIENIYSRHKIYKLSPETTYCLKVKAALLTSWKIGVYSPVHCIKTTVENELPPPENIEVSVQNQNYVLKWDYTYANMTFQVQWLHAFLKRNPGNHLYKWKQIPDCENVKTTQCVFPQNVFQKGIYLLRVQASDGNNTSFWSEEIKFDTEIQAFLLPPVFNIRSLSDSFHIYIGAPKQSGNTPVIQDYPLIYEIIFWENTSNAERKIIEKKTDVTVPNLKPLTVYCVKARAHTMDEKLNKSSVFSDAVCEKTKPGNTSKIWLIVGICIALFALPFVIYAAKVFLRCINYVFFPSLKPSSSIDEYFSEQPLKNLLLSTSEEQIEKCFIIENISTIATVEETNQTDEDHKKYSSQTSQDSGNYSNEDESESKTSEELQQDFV
T1 sequence (looked up) 2: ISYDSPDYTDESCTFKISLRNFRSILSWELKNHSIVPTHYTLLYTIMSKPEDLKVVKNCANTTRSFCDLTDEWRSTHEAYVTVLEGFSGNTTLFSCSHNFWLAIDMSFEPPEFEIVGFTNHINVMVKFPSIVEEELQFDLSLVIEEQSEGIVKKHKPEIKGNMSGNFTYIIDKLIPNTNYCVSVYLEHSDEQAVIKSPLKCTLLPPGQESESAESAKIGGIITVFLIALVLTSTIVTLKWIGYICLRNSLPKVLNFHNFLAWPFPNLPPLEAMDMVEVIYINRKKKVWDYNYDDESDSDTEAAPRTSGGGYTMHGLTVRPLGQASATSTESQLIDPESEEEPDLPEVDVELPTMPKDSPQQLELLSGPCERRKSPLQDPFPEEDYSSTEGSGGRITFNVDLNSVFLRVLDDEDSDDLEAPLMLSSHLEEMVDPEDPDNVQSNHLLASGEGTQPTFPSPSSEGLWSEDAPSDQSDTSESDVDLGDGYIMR

B1: IFA12 (antibody, human IgG2, kappa)
light: DIQMTQSPSSVSASVGDRVTITCRASQGIYSWLAWYQQKPGKAPNLLIYTASTLQSGVPSRFSGSGSGTDFTLTISSLQPEDFATYYCQQANIFPLTFGGGTKVEIKRTVAAPSVFIFPPSDEQLKSGTASVVCLLNNFYPREAKVQWKVDNALQSGNSQESVTEQDSKDSTYSLSSTLTLSKADYEKHKVYACEVTHQGLSSPVTKSFNRGECPAPAMSYNLLGFLQRSSNFQCQKLLWQLNGRLEYCLKDRMNFDIPEEIKQLQQFQKEDAALTIYEMLQNIFAIFRQDSSSTGWNETIVENLLANVYHQINHLKTVLEEKLEKEDFTRGKLMSSLHLKRYYGRILHYLKAKEYSHCAWTIVRVEILRNFYFINRLTGYLRN
heavy: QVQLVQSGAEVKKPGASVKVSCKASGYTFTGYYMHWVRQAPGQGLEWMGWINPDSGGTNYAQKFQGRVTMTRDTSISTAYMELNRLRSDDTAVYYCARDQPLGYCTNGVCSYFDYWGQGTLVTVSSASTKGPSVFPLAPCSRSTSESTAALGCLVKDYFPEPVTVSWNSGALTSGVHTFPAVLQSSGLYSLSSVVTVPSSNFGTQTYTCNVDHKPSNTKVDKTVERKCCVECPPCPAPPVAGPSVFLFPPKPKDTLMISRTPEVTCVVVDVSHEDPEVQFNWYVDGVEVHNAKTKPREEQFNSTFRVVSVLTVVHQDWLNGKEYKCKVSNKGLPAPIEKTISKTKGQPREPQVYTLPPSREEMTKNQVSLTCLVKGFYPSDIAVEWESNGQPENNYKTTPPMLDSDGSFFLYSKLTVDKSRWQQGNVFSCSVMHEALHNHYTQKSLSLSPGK
B2: IFA13 (antibody, human IgG2, kappa)
light: B1 light with C235S
heavy: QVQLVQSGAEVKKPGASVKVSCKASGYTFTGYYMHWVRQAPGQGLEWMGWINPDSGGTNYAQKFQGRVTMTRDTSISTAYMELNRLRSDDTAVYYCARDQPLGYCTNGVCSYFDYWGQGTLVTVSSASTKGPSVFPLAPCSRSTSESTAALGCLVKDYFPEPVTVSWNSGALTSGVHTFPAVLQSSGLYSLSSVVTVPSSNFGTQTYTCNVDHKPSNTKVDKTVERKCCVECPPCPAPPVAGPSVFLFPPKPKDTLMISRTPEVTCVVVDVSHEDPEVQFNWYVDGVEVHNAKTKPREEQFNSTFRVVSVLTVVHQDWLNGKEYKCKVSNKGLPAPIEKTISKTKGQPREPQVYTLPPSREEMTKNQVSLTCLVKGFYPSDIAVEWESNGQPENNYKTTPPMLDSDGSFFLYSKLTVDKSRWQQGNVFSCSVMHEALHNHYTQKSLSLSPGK
B3: IFA1 (antibody, human IgG2, kappa)
light: DIQMTQSPSSVSASVGDRVTITCRASQGIYSWLAWYQQKPGKAPNLLIYTASTLQSGVPSRFSGSGSGTDFTLTISSLQPEDFATYYCQQANIFPLTFGGGTKVEIKRTVAAPSVFIFPPSDEQLKSGTASVVCLLNNFYPREAKVQWKVDNALQSGNSQESVTEQDSKDSTYSLSSTLTLSKADYEKHKVYACEVTHQGLSSPVTKSFNRGECAEAAAKEAAAKAMSYNLLGFLQRSSNFQCQKLLWQLNGRLEYCLKDRMNFDIPEEIKQLQQFQKEDAALTIYEMLQNIFAIFRQDSSSTGWNETIVENLLANVYHQINHLKTVLEEKLEKEDFTRGKLMSSLHLKRYYGRILHYLKAKEYSHCAWTIVRVEILRNFYFINRLTGYLRN
heavy: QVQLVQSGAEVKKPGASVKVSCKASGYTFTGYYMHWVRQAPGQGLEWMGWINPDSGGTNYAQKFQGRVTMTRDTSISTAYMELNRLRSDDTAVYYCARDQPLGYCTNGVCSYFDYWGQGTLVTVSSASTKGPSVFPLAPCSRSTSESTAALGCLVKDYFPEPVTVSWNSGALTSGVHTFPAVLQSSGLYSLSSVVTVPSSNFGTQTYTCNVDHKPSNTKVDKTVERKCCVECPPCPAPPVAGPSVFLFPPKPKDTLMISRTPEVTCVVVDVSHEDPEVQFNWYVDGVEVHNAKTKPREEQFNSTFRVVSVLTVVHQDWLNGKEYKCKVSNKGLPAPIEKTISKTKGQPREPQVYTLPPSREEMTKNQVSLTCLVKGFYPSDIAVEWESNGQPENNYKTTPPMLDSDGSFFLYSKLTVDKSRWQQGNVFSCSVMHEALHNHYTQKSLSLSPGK
B4: IFA10 (antibody, human IgG2, kappa)
heavy: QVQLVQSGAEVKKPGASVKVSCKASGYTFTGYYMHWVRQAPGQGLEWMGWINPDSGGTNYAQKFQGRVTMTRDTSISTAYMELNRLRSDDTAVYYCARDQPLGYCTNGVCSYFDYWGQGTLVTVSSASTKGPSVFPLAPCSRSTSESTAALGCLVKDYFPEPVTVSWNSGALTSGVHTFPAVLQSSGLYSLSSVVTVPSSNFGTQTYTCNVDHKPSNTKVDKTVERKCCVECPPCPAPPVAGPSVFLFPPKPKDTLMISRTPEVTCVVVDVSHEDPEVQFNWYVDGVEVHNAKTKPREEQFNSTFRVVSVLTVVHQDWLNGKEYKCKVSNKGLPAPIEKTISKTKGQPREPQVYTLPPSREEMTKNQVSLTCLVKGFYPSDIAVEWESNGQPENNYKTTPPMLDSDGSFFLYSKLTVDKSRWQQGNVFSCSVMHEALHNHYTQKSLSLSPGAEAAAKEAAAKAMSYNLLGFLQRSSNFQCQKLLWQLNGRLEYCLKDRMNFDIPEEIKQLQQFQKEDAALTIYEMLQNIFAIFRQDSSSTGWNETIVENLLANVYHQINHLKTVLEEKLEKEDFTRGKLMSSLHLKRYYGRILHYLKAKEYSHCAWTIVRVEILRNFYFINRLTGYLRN
light: DIQMTQSPSSVSASVGDRVTITCRASQGIYSWLAWYQQKPGKAPNLLIYTASTLQSGVPSRFSGSGSGTDFTLTISSLQPEDFATYYCQQANIFPLTFGGGTKVEIKRTVAAPSVFIFPPSDEQLKSGTASVVCLLNNFYPREAKVQWKVDNALQSGNSQESVTEQDSKDSTYSLSSTLTLSKADYEKHKVYACEVTHQGLSSPVTKSFNRGEC
B5: IFA11 (antibody, human IgG2, kappa)
heavy: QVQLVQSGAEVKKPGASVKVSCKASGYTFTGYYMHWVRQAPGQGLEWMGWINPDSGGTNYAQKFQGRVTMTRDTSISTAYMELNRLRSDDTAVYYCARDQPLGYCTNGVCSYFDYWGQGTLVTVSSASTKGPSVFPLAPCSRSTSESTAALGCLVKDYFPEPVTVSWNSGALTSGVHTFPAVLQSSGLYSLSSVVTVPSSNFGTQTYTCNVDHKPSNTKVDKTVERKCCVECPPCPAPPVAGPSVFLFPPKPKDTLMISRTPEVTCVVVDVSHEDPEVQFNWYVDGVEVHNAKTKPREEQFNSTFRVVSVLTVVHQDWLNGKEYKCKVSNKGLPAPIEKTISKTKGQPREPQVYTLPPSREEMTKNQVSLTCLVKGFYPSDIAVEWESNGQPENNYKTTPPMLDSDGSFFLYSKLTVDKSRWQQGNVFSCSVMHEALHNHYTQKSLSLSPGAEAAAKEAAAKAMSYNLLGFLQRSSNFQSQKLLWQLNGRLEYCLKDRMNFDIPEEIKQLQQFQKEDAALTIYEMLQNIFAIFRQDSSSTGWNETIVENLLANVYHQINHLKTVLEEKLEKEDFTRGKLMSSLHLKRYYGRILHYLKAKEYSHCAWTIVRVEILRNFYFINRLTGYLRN
light: B4 light
B6: IFA20 (antibody, human IgG2, kappa)
light: DIQMTQSPSSVSASVGDRVTITCRASQGIYSWLAWYQQKPGKAPNLLIYTASTLQSGVPSRFSGSGSGTDFTLTISSLQPEDFATYYCQQANIFPLTFGGGTKVEIKRTVAAPSVFIFPPSDEQLKSGTASVVCLLNNFYPREAKVQWKVDNALQSGNSQESVTEQDSKDSTYSLSSTLTLSKADYEKHKVYACEVTHQGLSSPVTKSFNRGECAEAAAKEAAAKAAEAAAKEAAAKAMSYNLLGFLQRSSNFQSQKLLWQLNGRLEYCLKDRMNFDIPEEIKQLQQFQKEDAALTIYEMLQNIFAIFRQDSSSTGWNETIVENLLANVYHQINHLKTVLEEKLEKEDFTRGKLMSSLHLKRYYGRILHYLKAKEYSHCAWTIVRVEILRNFYFINRLTGYLRN
heavy: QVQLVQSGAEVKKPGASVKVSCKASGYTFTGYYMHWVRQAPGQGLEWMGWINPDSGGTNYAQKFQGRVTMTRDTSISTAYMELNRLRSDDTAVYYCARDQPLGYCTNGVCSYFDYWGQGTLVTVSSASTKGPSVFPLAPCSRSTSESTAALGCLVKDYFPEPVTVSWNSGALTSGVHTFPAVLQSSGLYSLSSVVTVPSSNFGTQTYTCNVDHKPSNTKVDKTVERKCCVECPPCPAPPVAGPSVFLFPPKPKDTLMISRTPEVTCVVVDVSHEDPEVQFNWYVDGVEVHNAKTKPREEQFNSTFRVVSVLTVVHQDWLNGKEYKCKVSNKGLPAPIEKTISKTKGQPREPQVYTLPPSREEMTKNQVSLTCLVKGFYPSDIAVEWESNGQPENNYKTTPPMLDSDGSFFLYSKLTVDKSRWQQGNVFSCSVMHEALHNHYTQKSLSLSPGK
B7: IFA19 (antibody, human IgG2, kappa)
light: DIQMTQSPSSVSASVGDRVTITCRASQGIYSWLAWYQQKPGKAPNLLIYTASTLQSGVPSRFSGSGSGTDFTLTISSLQPEDFATYYCQQANIFPLTFGGGTKVEIKRTVAAPSVFIFPPSDEQLKSGTASVVCLLNNFYPREAKVQWKVDNALQSGNSQESVTEQDSKDSTYSLSSTLTLSKADYEKHKVYACEVTHQGLSSPVTKSFNRGECSGGTSGSTSGTGSMSYNLLGFLQRSSNFQSQKLLWQLNGRLEYCLKDRMNFDIPEEIKQLQQFQKEDAALTIYEMLQNIFAIFRQDSSSTGWNETIVENLLANVYHQINHLKTVLEEKLEKEDFTRGKLMSSLHLKRYYGRILHYLKAKEYSHCAWTIVRVEILRNFYFINRLTGYLRN
heavy: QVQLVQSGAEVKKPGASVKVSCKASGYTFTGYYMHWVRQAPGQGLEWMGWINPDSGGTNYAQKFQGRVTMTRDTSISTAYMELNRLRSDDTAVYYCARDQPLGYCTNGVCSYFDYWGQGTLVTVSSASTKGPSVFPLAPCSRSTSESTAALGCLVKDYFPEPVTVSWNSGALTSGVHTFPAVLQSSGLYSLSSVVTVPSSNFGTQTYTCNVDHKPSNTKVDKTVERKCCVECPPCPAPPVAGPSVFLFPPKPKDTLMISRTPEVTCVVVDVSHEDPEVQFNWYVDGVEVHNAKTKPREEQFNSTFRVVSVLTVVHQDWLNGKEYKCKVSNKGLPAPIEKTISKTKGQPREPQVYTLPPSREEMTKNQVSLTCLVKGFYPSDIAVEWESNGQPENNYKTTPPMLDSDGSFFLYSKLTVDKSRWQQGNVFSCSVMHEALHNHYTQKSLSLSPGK

target: human CD40 (human, UniProt P25942 21-277); assay: cell-based or functional assay
Sequence (P25942 21-277): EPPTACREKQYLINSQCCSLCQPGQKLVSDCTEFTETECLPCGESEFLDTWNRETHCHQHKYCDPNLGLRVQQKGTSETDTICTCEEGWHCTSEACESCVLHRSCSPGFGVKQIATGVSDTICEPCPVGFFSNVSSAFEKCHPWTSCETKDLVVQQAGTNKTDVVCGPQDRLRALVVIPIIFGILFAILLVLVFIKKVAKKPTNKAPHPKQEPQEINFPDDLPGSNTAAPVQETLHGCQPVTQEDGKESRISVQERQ

In order of rising “CD40 EC50 (HEK-Blue CD40L NFκB-SEAP reporter cells)” value:
1. B4  0.0265 µg/mL
2. B5  0.0428 µg/mL
3. B3  0.0741 µg/mL
4. B1  0.105 µg/mL
5. B7  0.11 µg/mL
6. B6  0.182 µg/mL
7. B2  0.192 µg/mL

target: T1, human type I IFN receptor on HEK-Blue …; assay: cell-based or functional assay

In order of falling “IFNβ EC50 (HEK-Blue IFN-α/β SEAP reporter cells)” value:
1. B4  0.0045 µg/mL
2. B1  0.00364 µg/mL
3. B6  0.00234 µg/mL
4. B5  0.00178 µg/mL
5. B3  0.00164 µg/mL
6. B7  0.0013 µg/mL
7. B2  0.0007 µg/mL
